# Where no end group is shown, it is not given here.
# Target: purified recombinant WDR5 (used for FPA) (UniProt P61964 1-334)
# Assay: fluorescence polarisation
row,Kd,Binder
1,> 500 µM,DEEEEDEESV [MbIIIb mutant peptide WBM (I262/V264/V265 to glutamic acid)]
2,> 500 µM,DEEEIDGVSV [MbIIIb mutant peptide V264G]
3,9.3 µM,DEEEIDVVSV (also: FITC label (position not given here)) [FITC-labeled MbIIIb peptide (residues 258–267 of human c-MYC)]
